Results on 1 molecule are retold here after paper PMC7031210.

This test concerns the target T1, RecA (B. subtilis) (UniProt P16971).
T1 sequence: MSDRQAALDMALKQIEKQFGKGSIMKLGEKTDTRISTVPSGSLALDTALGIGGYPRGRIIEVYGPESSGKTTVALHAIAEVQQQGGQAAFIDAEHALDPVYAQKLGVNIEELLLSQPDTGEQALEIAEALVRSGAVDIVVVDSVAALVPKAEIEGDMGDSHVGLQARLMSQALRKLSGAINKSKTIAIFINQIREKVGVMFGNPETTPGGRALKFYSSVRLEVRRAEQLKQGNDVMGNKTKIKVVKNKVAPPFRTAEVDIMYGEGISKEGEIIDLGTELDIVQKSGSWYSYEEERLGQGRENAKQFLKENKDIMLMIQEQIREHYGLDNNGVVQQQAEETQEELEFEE

B1: RarA K51A (enzyme)
chain: MKPLAYRMRPTKIEDIIGQQHLVAEDKIIGRMVQAKHLSSMILYGPPGIGATSIATAIAGSTSIAFRKLNAVINNKKDMEIVAQEAKMSGQVILILDEVHRLDKGKQDFLLPYLENGMIILIGATTANPYHAINPAIRSRTQIFELEPLTPELIKQALERALHDEHRGLGTYSVSIDDQAMEHFAHGCGGDVRSALNALELAVLSTKESADGEIHITLETAEECLQKKSFSHDKDGDAHYDVLSAFQKSIRGSDANAALHYLARLIEAGDLESIARRLLVIAYEDIGLASPQAGPRVLNAIQTAERVGFPEARIPLANAVIELCLSPKSNSAILAIDEALADIRAGKIGDVPKHLKDAHYKGAQELGRGIDYKYPHNYDNGWVEQQYLPDPLKNKQYYKPKQTGKFESALKQVYDKLMKRK
B1: the maximal rate of ssDNA-dependent ATP hydrolysis of RecA (650 nM) in the presence of RarA K51A (100 nM), coupled spectrophotometric ATPase assay, 5 mM ATP, 30 min at 37°C was determined as 8.8 min⁻¹.
